Source: patent publication US20070059314A1

Target: VEGF165 (UniProt P15692)
Test: cell-based or functional assay

Sequence of VEGF165 (P15692 other isoform, or with tags, fused parts or gaps limits assumed): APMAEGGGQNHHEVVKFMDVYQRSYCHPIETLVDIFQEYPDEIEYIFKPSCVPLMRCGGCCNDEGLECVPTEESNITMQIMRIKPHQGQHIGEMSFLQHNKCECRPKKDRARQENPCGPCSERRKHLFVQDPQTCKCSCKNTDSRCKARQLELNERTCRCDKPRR

HUAEC cell proliferation induced by 2 ng/ml VEGF165 (crystal violet, OD 595 nm): 200 ng/mL
Substance: C-terminal fragment of the NOV protein (amino acids 188 to 357) (from UniProt P48745 188-357)
